Experimental data reported in patent US20190010233A1.

How the values were obtained:
[1] = biological target: cyno PD-L1^ECD-hFc protein (cyno) (UniProt G7PSE7); assay: ELISA, 1 nM mAb
[2] = biological target: human PD-L1^ECD-hFc protein (human) (UniProt Q9NZQ7); assay: ELISA, 1 nM mAb
[3] = biological target: cyno PD-L1^ECD-hFc protein (cyno) (UniProt G7PSE7); assay: ELISA, 3 nM mAb
[4] = biological target: human PD-L1^ECD-hFc protein (human) (UniProt Q9NZQ7); assay: ELISA, 3 nM mAb
[5] = biological target: human PD-L1^ECD-hFc protein (human) (UniProt Q9NZQ7); assay: ELISA, 10 nM mAb
[6] = biological target: human PD-L1^ECD-hFc protein (human) (UniProt Q9NZQ7); assay: ELISA, 30 nM mAb
[7] = biological target: cyno PD-L1^ECD-hFc protein (cyno) (UniProt G7PSE7); assay: ELISA, 10 nM mAb
[8] = biological target: cyno PD-L1^ECD-hFc protein (cyno) (UniProt G7PSE7); assay: ELISA, 30 nM mAb
[9] = biological target: cyno PD-L1^ECD-hFc protein (cyno) (UniProt G7PSE7); assay: ELISA, 0.3 nM mAb
[10] = biological target: human PD-L1^ECD-hFc protein (human) (UniProt Q9NZQ7); assay: ELISA, 0.3 nM mAb
[11] = biological target: cyno PD-L1^ECD-hFc protein (cyno) (UniProt G7PSE7); assay: ELISA, 100 nM mAb
[12] = biological target: human PD-L1^ECD-hFc protein (human) (UniProt Q9NZQ7); assay: ELISA, 100 nM mAb
[13] = biological target: cyno PD-L1^ECD-hFc protein (cyno) (UniProt G7PSE7); assay: ELISA, 0.01 nM mAb
[14] = biological target: human PD-L1^ECD-hFc protein (human) (UniProt Q9NZQ7); assay: ELISA, 0.01 nM mAb
[15] = biological target: cyno PD-L1^ECD-hFc protein (cyno) (UniProt G7PSE7); assay: ELISA, 0.03 nM mAb
[16] = biological target: human PD-L1^ECD-hFc protein (human) (UniProt Q9NZQ7); assay: ELISA, 0.03 nM mAb
[17] = biological target: cyno PD-L1^ECD-hFc protein (cyno) (UniProt G7PSE7); assay: ELISA, 0.123 nM mAb
[18] = biological target: human PD-L1^ECD-hFc protein (human) (UniProt Q9NZQ7); assay: ELISA, 0.123 nM mAb
[19] = biological target: cyno PD-L1^ECD-hFc protein (cyno) (UniProt G7PSE7); assay: ELISA, 1.111 nM mAb
[20] = biological target: human PD-L1^ECD-hFc protein (human) (UniProt Q9NZQ7); assay: ELISA, 1.111 nM mAb
[21] = biological target: cyno PD-L1^ECD-hFc protein (cyno) (UniProt G7PSE7); assay: ELISA, 3.333 nM mAb
[22] = biological target: human PD-L1^ECD-hFc protein (human) (UniProt Q9NZQ7); assay: ELISA, 3.333 nM mAb
[23] = biological target: cyno PD-L1^ECD-hFc protein (cyno) (UniProt G7PSE7); assay: ELISA, 0.0001 nM mAb
[24] = biological target: human PD-L1^ECD-hFc protein (human) (UniProt Q9NZQ7); assay: ELISA, 0.0001 nM mAb
[25] = biological target: cyno PD-L1^ECD-hFc protein (cyno) (UniProt G7PSE7); assay: ELISA, 0.00003 nM mAb
[26] = biological target: human PD-L1^ECD-hFc protein (human) (UniProt Q9NZQ7); assay: ELISA, 0.00003 nM mAb
[27] = biological target: full length human PD-L1 on cells (human) (UniProt Q9NZQ7); assay: FACS CHO-K1-hPD-L1, 1 nM mAb
[28] = biological target: full length human PD-L1 on cells (human) (UniProt Q9NZQ7); assay: FACS CHOK1-hPD-L1, 300 nM mAb
[29] = biological target: full length cyno PD-L1 on cells (cyno) (UniProt G7PSE7); assay: FACS CHO-K1-cPD-L1, 30 nM mAb
[30] = biological target: full length human PD-L1 on cells (human) (UniProt Q9NZQ7); assay: FACS CHO-K1-hPD-L1, 0.1 nM mAb
[31] = biological target: full length cyno PD-L1 on cells (cyno) (UniProt G7PSE7); assay: FACS CHO-K1-cPD-L1, 0.01 nM mAb
[32] = biological target: full length cyno PD-L1 on cells (cyno) (UniProt G7PSE7); assay: FACS CHO-K1-cPD-L1, 1.23 nM mAb
[33] = biological target: full length human PD-L1 on cells (human) (UniProt Q9NZQ7); assay: FACS CHOK1-hPD-L1, 0.003 nM mAb
[34] = biological target: full length cyno PD-L1 on cells (cyno) (UniProt G7PSE7); assay: FACS CHO-K1-cPD-L1, 11.11 nM mAb
[35] = biological target: full length human PD-L1 on cells (human) (UniProt Q9NZQ7); assay: FACS CHOK1-hPD-L1, 0.0003 nM mAb
[36] = biological target: full length cyno PD-L1 on cells (cyno) (UniProt G7PSE7); assay: FACS CHO-K1-cPD-L1, 0.003 nM mAb
[37] = biological target: full length human PD-L1 on cells (human) (UniProt Q9NZQ7); assay: FACS CHO-K1-hPD-L1, 100.00 nM mAb
[38] = biological target: full length cyno PD-L1 on cells (cyno) (UniProt G7PSE7); assay: FACS CHO-K1-cPD-L1, 0.0003 nM mAb
hPD-L2 (human) = hPD-L2 (human) (UniProt Q9BQ51); assay: ELISA, mAb concentration not given
[39] = biological target: human PD-L1^ECD-hFc protein (human) (UniProt Q9NZQ7); assay: ELISA, mAb concentration not given
[40] = biological target: full length cyno PD-L1 on cells (cyno) (UniProt G7PSE7); assay: FACS CHO-K1-cPD-L1, 0.001 nM mAb as printed (second such column)

full length human PD-L1 on cells (human), sequence (Q9NZQ7 19-290 limits assumed): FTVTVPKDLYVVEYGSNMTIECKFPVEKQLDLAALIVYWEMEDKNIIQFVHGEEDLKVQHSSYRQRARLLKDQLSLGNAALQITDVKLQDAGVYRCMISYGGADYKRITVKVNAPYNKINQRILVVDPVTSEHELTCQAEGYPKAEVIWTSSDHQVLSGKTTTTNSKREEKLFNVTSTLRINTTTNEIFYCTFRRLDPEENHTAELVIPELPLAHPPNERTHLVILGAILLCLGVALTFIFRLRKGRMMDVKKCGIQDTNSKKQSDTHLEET
cyno PD-L1^ECD-hFc protein (cyno), sequence (G7PSE7 entry or part of it limits assumed): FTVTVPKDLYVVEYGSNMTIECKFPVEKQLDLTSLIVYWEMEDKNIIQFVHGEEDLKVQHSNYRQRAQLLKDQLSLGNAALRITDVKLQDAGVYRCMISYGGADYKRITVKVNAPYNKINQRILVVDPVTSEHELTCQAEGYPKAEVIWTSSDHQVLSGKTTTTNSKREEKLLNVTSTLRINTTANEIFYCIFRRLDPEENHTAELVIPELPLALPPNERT
full length cyno PD-L1 on cells (cyno), sequence (G7PSE7 entry or part of it limits assumed): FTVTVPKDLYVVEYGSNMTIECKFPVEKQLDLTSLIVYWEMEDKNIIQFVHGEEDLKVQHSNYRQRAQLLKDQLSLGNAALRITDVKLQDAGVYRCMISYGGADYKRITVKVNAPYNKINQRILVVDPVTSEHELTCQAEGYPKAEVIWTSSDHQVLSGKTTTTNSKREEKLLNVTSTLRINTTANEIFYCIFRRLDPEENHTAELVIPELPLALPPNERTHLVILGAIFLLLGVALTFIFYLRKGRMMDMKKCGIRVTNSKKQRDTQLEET
human PD-L1^ECD-hFc protein (human), sequence (Q9NZQ7 19-239): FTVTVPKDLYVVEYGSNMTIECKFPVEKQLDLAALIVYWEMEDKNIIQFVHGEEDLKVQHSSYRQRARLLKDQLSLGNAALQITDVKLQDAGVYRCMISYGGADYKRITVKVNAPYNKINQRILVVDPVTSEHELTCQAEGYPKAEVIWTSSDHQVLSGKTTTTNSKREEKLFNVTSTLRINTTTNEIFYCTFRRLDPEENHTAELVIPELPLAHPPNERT
hPD-L2 (human), sequence (Q9BQ51 20-219 limits assumed): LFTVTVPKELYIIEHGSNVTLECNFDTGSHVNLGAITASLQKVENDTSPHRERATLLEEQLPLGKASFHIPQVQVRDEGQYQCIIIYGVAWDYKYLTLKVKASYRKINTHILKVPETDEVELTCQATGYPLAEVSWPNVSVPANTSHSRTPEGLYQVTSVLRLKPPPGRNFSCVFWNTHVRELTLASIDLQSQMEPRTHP

IgG control (human IgG) (antibody) gave an OD450 nm [1] of 0.0989, an OD450 nm [2] of 0.157 and an OD450 nm [3] of 0.282. For the same substance, the OD450 nm [4] was 0.277, the OD450 nm [5] was 0.15 and the OD450 nm [6] was 0.12. It also gave an OD450 nm [7] of 0.134, an OD450 nm [8] of 0.306 and an OD450 nm [9] of 0.28. It also gave an OD450 nm [10] of 0.293, an OD450 nm [11] of 0.398 and an OD450 nm [12] of 0.767. The OD450 nm [13] was 0.0987, the OD450 nm [14] was 0.154 and the OD450 nm [15] was 0.276. The OD450 nm [16] was 0.273, the OD450 nm [17] was 0.11 and the OD450 nm [18] was 0.11. The OD450 nm [19] was 0.16, the OD450 nm [20] was 0.16 and the OD450 nm [21] was 0.11. It also gave an OD450 nm [22] of 0.11, an OD450 nm [23] of 0.0988 and an OD450 nm [24] of 0.162. The OD450 nm [25] was 0.31, the OD450 nm [26] was 0.296 and the Mean fluorescence intensity [27] was 2.51. It also gave a Mean fluorescence intensity [28] of 4.86, a Mean fluorescence intensity [29] of 4.12 and a Mean fluorescence intensity [30] of 2.55. The Mean fluorescence intensity [31] was 1.87, the Mean fluorescence intensity [32] was 2.82 and the Mean fluorescence intensity [33] was 3.03. It also gave a Mean fluorescence intensity [34] of 2.93, a Mean fluorescence intensity [35] of 2.79 and a Mean fluorescence intensity [36] of 3.62. The Mean fluorescence intensity [37] was 2.7, the Mean fluorescence intensity [38] was 3.76 and the OD450 nm (hPD-L2 (human)) was 0.189. For the same substance, the OD450 nm [39] was 0.206 and the Mean fluorescence intensity [40] was 7.33.
